Test results published in patent US20060247420A1, “Immune cell recptor ligand and immune cell receptor” (priority 2002, published 2006).

How the values were obtained:
Assay type in all cases: cell-based, human
peripheral CD8^+ T-cells = assay: Cisplatin-induced apoptosis of pre-stimulated CD8+ lymphocytes, annexin-V; settings: pre-stimulated 3 days; 50 μM cisplatin for 17 hr
Description: (§1) Apoptosis assay. The percentage of apoptotic cells was determined after 17 h incubation with 50 μM cisplatin or 18 hs exposure to 0.1 μg/ml anti-CD95 mAb (EOS9.1; Pharmingen) by using the TACS annexin-V apoptosis detection kit, according to the manufacturer's instructions (R & D Systems). Fas expression was determined by flow cytometry by using EOS9.1 as a primary Ab and a PE-labeled anti-mouse IgM (R6-60.2; Pharmingen) as a second Ab.
Cytotoxic chemotherapy can, however, deplete tumor-specific effector T-cells (Lee et al, Nat. Med. 5:677-685 (1999)). Because the glycolytic pathway is implicated in lymphocyte survival (Plas et al, Nat. Immunol. 3:515-521 (2002)), a determination was made as to whether Letal could protect T-cells from early apoptotic death induced by genotoxic drugs.

[1] = tested on: Fas on peripheral CD8^+ T-cells; assay: Fas expression on stimulated CD8+ T-cells, flow cytometry; settings: 4 days stimulation
Description: as §1
(§2) Letal engagement protects CD8^+ T-cells from FasL-induced apoptosis. […] Because ovarian carcinomas express FasL and other lymphocyte-depleting death ligands (Rabinowich et al, J. Clin. Invest. 101:2579-2588 (1998)), the prevalence of FasL expression and its impact on TILs was determined in 42 stage III ovarian carcinoma specimens. Strong FasL immunoreactivity was detected in tumor cells in areas of selected specimens (FIG. 10A), as well as in a proportion of stromal leukocytes. To test whether Letal promotes the generation of activated T-cell subpopulations that are able to resist the pro-apoptotic tumor microenvironment, peripheral CD8^+ T-cells were stimulated for 4 days with CD3/Letal, CD3/CD28, or anti-CD3 alone, and expression of Fas was measured by flow cytometry. […]

CD8^+ lymphocytes = assay: Anti-CD95 (EOS9.1) induced apoptosis of stimulated CD8+ lymphocytes, annexin-V; settings: treated 4 days; anti-Fas Ab, after 18 h
Description: as §1, §2

[2] = tested on: glucose transporter Glut-1 in peripheral CD8^+ T-cells; assay: Glut-1 expression in stimulated CD8+ T-cells, flow cytometry; settings: 20 hr stimulation
Text: CD8^+ lymphocyte stimulation, cytokine release and glucose metabolism analysis. To analyze the effects of Letal on the T-cell proliferation and production of cytokines, a previously described artificial antigen-presenting cell (aAPC) model was used (Maus et al, Nat. Biotechnol. 20:143-148 (2002)). Briefly, the system is based on the stable expression of the human low-affinity Fcγ receptor, CD32, on K562 cells (K32 cell line). K32 cell-based aAPCs were additionally transduced with Letal or with the empty vector as described above, irradiated with 100Gy, and washed twice with RPMI medium. […] Cultures were pulsed with 1 μCi of [^3H] thymidine from day 2 to day 5 and incorporated radioactivity was determined using a 1450 Microbeta scintillation counter (Wallac, Turku, Finland). The amounts of secreted IL-2 and IFN-γ were determined by commercial ELISA, following the manufacturer's instructions (R & D Systems). […]
Letal signaling increases glucose transporter expression and glucose uptake during T-cell activation. […] To test whether Letal may have a similar effect during T-cell activation, peripheral CD8^+ T-cells were stimulated for 20 hr with anti-CD3, anti-CD3/anti-CD28, anti-CD3/Letal, or Letal alone and the expression of the glucose transporter Glut-1 was analyzed by flow cytometry. […]

B1: Letal: MHC-I related transmembrane ligand for the NKG2D receptor, polypeptide of SEQ ID NO:8; tested as expressed on transduced cells (protein)
chain: GGHSLCFNFTIKSLSRPGQPWCEAQVFLNKNLFLQYNSDNNMVKPLGLLGKKVYATSTWGELTQTLGEVGRDLRMLLCDIKPQIKTSDPSTLQVEMFCQREAERCTGASWQFATNGEKSLLFDAMNMTWTVINHEASKIKETWKKDRGLEKYFRKLSKGDCDHWLREFLGHWEAMPEPTVSPVNASDIHWSSSSLPDRWIILGAFILLVLMGIVLICVWWQNGEWQAGLWPLRTS
apoptosis after cisplatin (peripheral CD8^+ T-cells): markedly stronger protection
T-cells with dramatically reduced Fas expression compared to controls [1]: 60%
lymphocytes that resist apoptosis (CD8^+ lymphocytes): More than 25%
Glut-1 expression [2]: dramatic induction
